From patent US11278600B2, “Human alpha-galactosidase variants” (Codexis, Inc., priority 2014, dated 2022)

Tests used:
Type in all cases: biochemical
[1] = HTP-analysis of yeast culture supernatants, no challenge (MUGal hydrolysis); details: activity of the variant/activity of Rd4BB (SEQ ID NO: 15)
Method in brief: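 GLA variants expressed in yeast INVSc1, secreted into SD-Ura broth over 66-84 h at 30° C; clarified supernatants tested without challenge. Supernatant mixed with McIlvaine buffer pH 4.8 and 2 mM MUGal (citrate/KCl, pH 4.6), 37° C for 30-180 min, carbonate-quenched, fluorescence Ex 355/Em 448 nm.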

[2] = HTP-analysis of supernatants pretreated with base (MUGal hydrolysis); details: activity of the variant/activity of Rd4BB (SEQ ID NO: 15); challenge at pH 9.65
Method in brief: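 Fluorescence of released 4-MU (Ex 355 nm, Em 448 nm) after carbonate quench reports MUGal hydrolysis by GLA variants secreted from INVSc1 yeast. Before the acidic (pH 4.3-4.8) 30-180 min reaction at 37° C, supernatants had been pre-incubated at pH 7.0-9.7 for 1-18 h at 37° C.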

[3] = HTP-analysis of supernatants pretreated with acid (MUGal hydrolysis); details: activity of the variant/activity of Rd4BB (SEQ ID NO: 15); challenge at pH 3.7
Method in brief: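 MUGal hydrolysis was tracked by fluorescence (Ex 355 nm, Em 448 nm) after a 30-180 min reaction at 37° C. in pH 4.8 McIlvaine/citrate buffer, stopped with 1 M sodium carbonate. Beforehand, yeast (INVSc1) culture supernatants carrying GLA variants were held 1-3 h at 37° C. in acidic McIlvaine buffer, pH 3.3-4.3.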

Molecule | Relative Activity of GLA Variants After No Challenge (NC) [1] | Relative Activity of GLA Variants After Challenge at pH 9.65 [2] | Relative Activity of GLA Variants After Challenge at pH 3.7 [3]
490 (protein, Synthetic Polypeptide sequence of Variant No. 490 of mature Human GLA) LDNGLARTPTMGWLHWERFMCNLDCQEEPDSCISEKLFMEMAERMVSEGWKDAGYEYLCIDDCWMAPQRDSEGRLQADPQRFPHGIRQLANYVHSKGLKLGIYADVGNKTCAGFPGSFGYYDIDAQTFADWGVDLLKFDGCYCDSLENLADGYKHMSLALNRTGRSIVYSCEWPLYMWPFQKPNYTEIRQYCNHWRNFADIDDSWKSIKSILDWTSFNQERIVDVAGPGGWNDPDMLVIGNFGLSWNQQVTQMALWAIMAAPLFMSNDLRHISPQAKALLQDKDVIAINQDPLGKQGYQLRQGDNFEVWERPLSGLAWAVAMINRQEIGGPRSYTIAVASLGKGVACNPACFITQLLPVKRKLGFYEWTSRLRSHINPTGTVLLQLENTDQMSLKDLL | + (0.5 to 1.5 relative activity over Rd4BB (SEQ ID NO: 15)) | + (0.5 to 1.5 relative activity over Rd4BB (SEQ ID NO: 15)) | + (0.5 to 1.5 relative activity over Rd4BB (SEQ ID NO: 15))
496 (protein, Synthetic Polypeptide sequence of Variant No. 496 of mature Human GLA) LDNGLARTPTMGWLHWERFMCNLDCQEEPDSCISEKLFMEMAERMVSEGWKDAGYEYLCIDDCWMAPQRDSEGRLQADPQRFPHGIRQLANYVHSKGLKLGIYADVGNKTCAGFPGSFGYYDIDAQTFADWGVDLLKFDGCYCDSLENLADGYKHMSLALNRTGRSIVYSCEWPLYMWPFQKPNYTEIRQYCNHWRNFADIDDSWKSIKSILDWTSFNQERIVDVAGPGGWNDPDMLVIGNFGLSWNQQVTQMALWAIMAAPLFMSNDLRHISPQAKALLQDKDVIAINQDPLGKQGYQLRQGDNFEVWERPLSGLAWAVAMINRQEIGGPRSYTIAVASLGKGVACNPACFITQLLPVKRKLGFYEWTSRLRSHINPTGTVLLQLENTVQMSLKDLL | + (0.5 to 1.5 relative activity over Rd4BB (SEQ ID NO: 15)) | + (0.5 to 1.5 relative activity over Rd4BB (SEQ ID NO: 15)) | + (0.5 to 1.5 relative activity over Rd4BB (SEQ ID NO: 15))
491 (protein, Synthetic Polypeptide sequence of Variant No. 491 of mature Human GLA) LDNGLARTPTMGWLHWERFMCNLDCQEEPDSCISEKLFMEMAERMVSEGWKDAGYEYLCIDDCWMAPQRDSEGRLQADPQRFPHGIRQLANYVHSKGLKLGIYADVGNKTCAGFPGSFGYYDIDAQTFADWGVDLLKFDGCYCDSLENLADGYKHMSLALNRTGRSIVYSCEWPLYMWPFQKPNYTEIRQYCNHWRNFADIDDSWKSIKSILDWTSFNQERIVDVAGPGGWNDPDMLVIGNFGLSWNQQVTQMALWAIMAAPLFMSNDLRHISPQAKALLQDKDVIAINQDPLGKQGYQLRQGDNFEVWERPLSGLAWAVAMINRQEIGGPRSYTIAVASLGKGVACNPACFITQLLPVKRKLGFYEWTSRLRSHINPTGTVLLQLENTWQMSLKDLL | + (0.5 to 1.5 relative activity over Rd4BB (SEQ ID NO: 15)) | + (0.5 to 1.5 relative activity over Rd4BB (SEQ ID NO: 15)) | + (0.5 to 1.5 relative activity over Rd4BB (SEQ ID NO: 15))
494 (protein, Synthetic Polypeptide sequence of Variant No. 494 of mature Human GLA) LDNGLARTPTMGWLHWERFMCNLDCQEEPDSCISEKLFMEMAERMVSEGWKDAGYEYLCIDDCWMAPQRDSEGRLQADPQRFPHGIRQLANYVHSKGLKLGIYADVGNKTCAGFPGSFGYYDIDAQTFADWGVDLLKFDGCYCDSLENLADGYKHMSLALNRTGRSIVYSCEWPLYMWPFQKPNYTEIRQYCNHWRNFADIDDSWKSIKSILDWTSFNQERIVDVAGPGGWNDPDMLVIGNFGLSWNQQVTQMALWAIMAAPLFMSNDLRHISPQAKALLQDKDVIAINQDPLGKQGYQLRQGDNFEVWERPLSGLAWAVAMINRQEIGGPRSYTIAVASLGKGVACNPACFITQLLPVKRKLGFYEWTSRLRSHINPTGTVLLQLENTFQMSLKDLL | + (0.5 to 1.5 relative activity over Rd4BB (SEQ ID NO: 15)) | + (0.5 to 1.5 relative activity over Rd4BB (SEQ ID NO: 15)) | + (0.5 to 1.5 relative activity over Rd4BB (SEQ ID NO: 15))
495 (protein, Synthetic Polypeptide sequence of Variant No. 495 of mature Human GLA) LDNGLARTPTMGWLHWERFMCNLDCQEEPDSCISEKLFMEMAERMVSEGWKDAGYEYLCIDDCWMAPQRDSEGRLQADPQRFPHGIRQLANYVHSKGLKLGIYADVGNKTCAGFPGSFGYYDIDAQTFADWGVDLLKFDGCYCDSLENLADGYKHMSLALNRTGRSIVYSCEWPLYMWPFQKPNYTEIRQYCNHWRNFADIDDSWKSIKSILDWTSFNQERIVDVAGPGGWNDPDMLVIGNFGLSWNQQVTQMALWAIMAAPLFMSNDLRHISPQAKALLQDKDVIAINQDPLGKQGYQLRQGDNFEVWERPLSGLAWAVAMINRQEIGGPRSYTIAVASLGKGVACNPACFITQLLPVKRKLGFYEWTSRLRSHINPTGTVLLQLENPMQMSLKDLL | + (0.5 to 1.5 relative activity over Rd4BB (SEQ ID NO: 15)) | + (0.5 to 1.5 relative activity over Rd4BB (SEQ ID NO: 15)) | + (0.5 to 1.5 relative activity over Rd4BB (SEQ ID NO: 15))
497 (protein, Synthetic Polypeptide sequence of Variant No. 497 of mature Human GLA) LDNGLARTPTMGWLHWERFMCNLDCQEEPDSCISEKLFMEMAERMVSEGWKDAGYEYLCIDDCWMAPQRDSEGRLQADPQRFPHGIRQLANYVHSKGLKLGIYADVGNKTCAGFPGSFGYYDIDAQTFADWGVDLLKFDGCYCDSLENLADGYKHMSLALNRTGRSIVYSCEWPLYMWPFQKPNYTEIRQYCNHWRNFADIDDSWKSIKSILDWTSFNQERIVDVAGPGGWNDPDMLVIGNFGLSWNQQVTQMALWAIMAAPLFMSNDLRHISPQAKALLQDKDVIAINQDPLGKQGYQLRQGDNFEVWERPLSGLAWAVAMINRQEIGGPRSYTIAVASLGKGVACNPACFITQLLPVKRKLGFYEWTSRLRSHINPTGTVLLQLENTKQMSLKDLL | + (0.5 to 1.5 relative activity over Rd4BB (SEQ ID NO: 15)) | + (0.5 to 1.5 relative activity over Rd4BB (SEQ ID NO: 15)) | ++ (>1.5 to 2.5 relative activity over Rd4BB (SEQ ID NO: 15))
493 (protein, Synthetic Polypeptide sequence of Variant No. 493 of mature Human GLA) LDNGLARTPTMGWLHWERFMCNLDCQEEPDSCISEKLFMEMAERMVSEGWKDAGYEYLCIDDCWMAPQRDSEGRLQADPQRFPHGIRQLANYVHSKGLKLGIYADVGNKTCAGFPGSFGYYDIDAQTFADWGVDLLKFDGCYCDSLENLADGYKHMSLALNRTGRSIVYSCEWPLYMWPFQKPNYTEIRQYCNHWRNFADIDDSWKSIKSILDWTSFNQERIVDVAGPGGWNDPDMLVIGNFGLSWNQQVTQMALWAIMAAPLFMSNDLRHISPQAKALLQDKDVIAINQDPLGKQGYQLRQGDNFEVWERPLSGLAWAVAMINRQEIGGPRSYTIAVASLGKGVACNPACFITQLLPVKRKLGFYEWTSRLRSHINPTGTVLLQLENTMQPSLKDLL | + (0.5 to 1.5 relative activity over Rd4BB (SEQ ID NO: 15)) | + (0.5 to 1.5 relative activity over Rd4BB (SEQ ID NO: 15)) | + (0.5 to 1.5 relative activity over Rd4BB (SEQ ID NO: 15))
492 (protein, Synthetic Polypeptide sequence of Variant No. 492 of mature Human GLA) LDNGLARTPTMGWLHWERFMCNLDCQEEPDSCISEKLFMEMAERMVSEGWKDAGYEYLCIDDCWMAPQRDSEGRLQADPQRFPHGIRQLANYVHSKGLKLGIYADVGNKTCAGFPGSFGYYDIDAQTFADWGVDLLKFDGCYCDSLENLADGYKHMSLALNRTGRSIVYSCEWPLYMWPFQKPNYTEIRQYCNHWRNFADIDDSWKSIKSILDWTSFNQERIVDVAGPGGWNDPDMLVIGNFGLSWNQQVTQMALWAIMAAPLFMSNDLRHISPQAKALLQDKDVIAINQDPLGKQGYQLRQGDNFEVWERPLSGLAWAVAMINRQEIGGPRSYTIAVASLGKGVACNPACFITQLLPVKRKLGFYEWTSRLRSHINPTGTVLLQLENCMQMSLKDLL | + (0.5 to 1.5 relative activity over Rd4BB (SEQ ID NO: 15)) | + (0.5 to 1.5 relative activity over Rd4BB (SEQ ID NO: 15)) | + (0.5 to 1.5 relative activity over Rd4BB (SEQ ID NO: 15))
